Measurements from patent US8361510B2, “Nanogels for cellular delivery of therapeutics” (Georgia Tech Research Corporation, priority 2008, dated 2013).
Where no end group is shown, it is not given here.

How the values were obtained:
[1] = siRNA encapsulation in nanogels ("breathing-in" loading, UV-vis of supernatant); format: physicochemical; details: lyophilized nanogels reswollen in siRNA solution
Source text: In vitro siRNA encapsulation and release. Our group employs a “breathing-in” method for the encapsulation of various macromolecules within nanogels. In a typical method, lyophilized nanogels are resuspended in an aqueous solution containing the macromolecule to be loaded. Importantly, this is done using a loading solution volume that is almost completely imbibed by the swelling nanogels. In this fashion, the hydrogel network imbibes the payload with high efficiency and without relying on simple equilibrium partitioning to determine the maximum loading level. […]
The encapsulation efficiency was determined via ultracentrifugation of the nanogel loading solution and measurement of supernatant siRNA concentration by UV-vis spectroscopy (Shimadzu UV-1601). The moles of siRNA in the loading solution (msiRNA, Loading) and in the supernatant (msiRNA, Supernatant) were determined via interpolation from a separately constructed standard curve of absorbance vs. concentration (R^2>0.99). The encapsulation efficiency (EE) of the system could then be calculated through analysis of the amount of siRNA in the loading solution and the remaining moles of siRNA in the supernatant after nanogel swelling was complete, as illustrated by Equation 1 and in similar encapsulation experiments. […]

Hey cells = test: Nanogel/siGLO uptake by confocal microscopy, Hey cells; format: cell-based; details: Hey cells (high EphA2), 4 h incubation, serum-containing medium
Method: Cell transfection using nanogels. Hey or BG-1 cells were plated onto an 8-well chamber slide (5×10^3 cells/well), and the cells allowed to adhere overnight at 37° C. in a 5% CO2 atmosphere. After washing the wells with PBS and replacing the media, siGLO-loaded/YSA-conjugated nanogels, unloaded YSA-conjugated nanogels, pNIPMAm nanogels, or siGLO only were added to wells. Cells were incubated in each case for 4 h. In experiments where preincubation of ephrin-A1 was used to initiate internalization and degradation of EphA2, ephrin-A1 was added to the media at a final concentration of the ligand of 2 μg/mL. After incubation, the cells were washed with PBS, and the medium replaced. For fixation prior to confocal imaging, the cells were incubated with 2% (v/v) paraformaldehyde for 30 min
Confocal microscopy. A Zeiss LSM510 confocal microscope was used to take cell images. Cells were incubated with nanogels for 4 h. After 4 h, the cells were washed and then fixed on the slide. […]
Following loading with siGLO, nanogels were incubated with either Hey (high EphA2 expression) or BG-1 (low EphA2 expression) cells in order to compare the levels of targeted uptake by ovarian cancer cells. Uptake of the nanogels into the cells was followed using a fluorescent tag (AFA) incorporated into the nanogel core as well as by the fluorescence of the siGLO. […]

YSA-conjugated nanogels: core/shell pNIPMAm nanogels with YSA peptide coupled to shell amines via maleimide (EMCA) (YSAYPDSVPMMSC; also: coupled to nanogel shell amines via maleimide (EMCA))
siRNA encapsulation efficiency [1]: 93±1% | nanogel uptake (green AFA fluorescence) (Hey cells): strong green fluorescence
